Reference: PMC9595563 (2022)

Target: SARS-CoV-2 spike RBD-Fc recombinant protein (ELISA) (SARS-CoV-2, UniProt P0DTC2)
Experiment: ELISA

B1: LRRC15-His (natural protein)
chain: YHGCPSECTCSRASQVECTGARIVAVPTPLPWNAMSLQILNTHITELNESPFLNISALIALRIEKNELSRITPGAFRNLGSLRYLSLANNKLQVLPIGLFQGLDSLESLLLSSNQLLQIQPAHFSQCSNLKELQLHGNHLEYIPDGAFDHLVGLTKLNLGKNSLTHISPRVFQHLGNLQVLRLYENRLTDIPMGTFDGLVNLQELALQQNQIGLLSPGLFHNNHNLQRLYLSNNHISQLPPSVFMQLPQLNRLTLFGNSLKELSPGIFGPMPNLRELWLYDNHISSLPDNVFSNLRQLQVLILSRNQISFISPGAFNGLTELRELSLHTNALQDLDGNVFRMLANLQNISLQNNRLRQLPGNIFANVNGLMAIQLQNNQLENLPLGIFDHLGKLCELRLYDNPWRCDSDILPLRNWLLLNQPRLGTDTVPVCFSPANVRGQSLIIINVNVAVPSVHVPEVPSYPETPWYPDTPSYPDTTSVSSTTELTSPVEDYTDLTTIQVTDDRSVWGMTQAQSG
  Kd: 165 nM
